B1: TMPRSS4 Ab3 scFv (VH-VL) (scFv)
scFv: QVQLVQSGAEVKKPGSSVKVSCKASGYTFTSYDINWVRQAPGQGLEWMGGIIPIFGTTKFAQKFQGRVTITADESTSTAYMELSSLRSEDTAVYYCARDWYSSSWYNGDRGDWFDPWGQGTLVTVSSGGGGSGGGGSGGGGSDIVMTQSPLSLPVTPGEPASISCRSSGSLLHSNGYNYLDWYLQKPGQSPQLLIYAASSLQSGVPDRFSGSGSGTDFTLKISRVEAEDVGVYYCMQGTHWPGTFGQGTKVEIK
notes: on monoclonal phage in the screen
B2: TMPRSS4 Ab30 scFv (VH-VL) (scFv)
scFv: QVQLVQSGAEVKKPGASVKVSCKASGYTFTTYYMHWVRQAPGQGLEWMGWMNPNSGNTGYAQKFQGRVTMTRDTSTSTVYMELSSLRSEDTAVYYCARARTWLLSPFDYWGQGTLVTVSSGGGGSGGGGSGGGGSEIVMTQSPATLSVSPGERATLSCRASQSVGRYLAWYQQKPGQAPRLLIYGASTRATGIPARFSGSGSGTEFTLTISSLQSEDFAVYYCQHYDSSPMYTFGQGTKLEIK
notes: as for B1
B3: TMPRSS4 Ab31 scFv (VH-VL) (scFv)
scFv: QVQLVQSGAEVKKPGSSVKVSCKASGYTFRGSGISWVRQAPGQGLEWMGIIYPADSETRYSPSFQGRVTITADESTSTAYMELSSLRSEDTAVYYCARESSSWDYFDYWGQGTLVTVSSGGGGSGGGGSGGGGSEIVMTQSPATLSVSPGERATLSCRASQSVRSYLAWYQQKPGQAPRLLIYGASTRATGIPARFSGSGSGTEFTLTISSLQSEDFAVYYCQQHGSLPLTFGQGTKVEIK
notes: as for B1
B4: TMPRSS4 Ab32 scFv (VH-VL) (scFv)
scFv: QVQLVQSGAEVKKPGSSVKVSCKASGGTFSSYAISWVRQAPGQGLEWMGRINPSGGSTSYAQKFQGRVTMTRDTSTSTVYMELSSLRSEDTAVYYCARGRYSSSSWGQGTLVTVSSGGGGSGGGGSGGGGSDIQMTQSPSSLSASVGDRVTITCRASQSISTYLNWYQQKPGKAPKLLIYAASSLQRGVPSRFSGSGSGTDFTLTISSLQPEDFATYYCQQSYTTPLTFGGGTKVEIK
notes: as for B1
B5: TMPRSS4 Ab33 scFv (VH-VL) (scFv)
scFv: QVQLVQSGAEVKKPGASVKVSCKASGYTFSNYYMHWVRQAPGQGLEWVGWMNPKSGNTGYAQKFQGRVTMTRDTSTSTVYMELSSLRSEDTAVYYCARGRTWIQSSLGYWGQGTLVTVSSGGGGSGGGGSGGGGSDIQMTQSPSSLSASVGDRVTITCRASQYISRWLAWYQQKPGKAPKLLIYGSSTLQSGVPSRFSGSGSGTDFTLTISSLQPEDFATYYCQQYYSTPFTFGPGTKLEIK
notes: as for B1
B6: TMPRSS4 Ab34 scFv (VH-VL) (scFv)
scFv: QVQLVQSGAEVKKPGASVKVSCKASGYTFTGYYIHWVRQAPGQGLEWMGWMNPHSGNTGYAQKFQGRVTMTRDTSTSTVYMELSSLRSEDTAVYYCAREGGRYSSGRLGYWGQGTLVTVSSGGGGSGGGGSGGGGSDIQMTQSPSSLSASVGDRVTITCRASQGISSWLAWYQQKPGKAPKLLIYAASTLQTGVPSRFSGSGSGTDFTLTISSLQPEDFATYYCQQSKSIPITFGGGTKVEIK
notes: as for B1
B7: TMPRSS4 Ab35 scFv (VH-VL) (scFv)
scFv: QVQLVQSGAEVKKPGASVKVSCKASGYTFTGYYMHWVRQAPGQGLEWMGKISAHSGETKYAQNVQGRVTMTRDTSTSTVYMELSSLRSEDTAVYYCARANYYGDYVNYYYGMDVWGQGTTVTVSSGGGGSGGGGSGGGGSDIQMTQSPSSLSASVGDRVTITCQASQDISNYLNWYQQKPGKAPKLLIYKASSLESGVPSRFSGSGSGTDFTLTISSLQPEDFATYYCQQTYTIPITFGQGTRLEIK
notes: as for B1
B8: TMPRSS4 Ab36 scFv (VH-VL) (scFv)
scFv: EVQLLESGGGLVQPGGSLRLSCAASGFTFSSRAMSWVRQAPGKGLEWVSRINYDGSATTYADSVKGRFTISRDNSKNTLYLQMNSLRAEDTAVYYCARGITIFGVFDYWGQGTLVTVSSGGGGSGGGGSGGGGSDIQMTQSPSSLSASVGDRVTITCRASQSISTWLAWYQQKPGKAPKLLIYRASNLQSGVPSRFSGSGSGTDFTLTISSLQPEDFATYYCQQSYSTPLTFGGGTKVEIK
notes: as for B1
B9: TMPRSS4 Ab37 scFv (VH-VL) (scFv)
scFv: EVQLLESGGGLVQPGGSLRLSCAASGFTFSSYAMHWVRQAPGKGLEWVSYISSSGSTVYYADSVKGRFTISRDNSKNTLYLQMNSLRAEDTAVYYCARVSNVTPRSGFGYWGQGTLVTVSSGGGGSGGGGSGGGGSDIQMTQSPSSLSASVGDRVTITCRASQSISRYLNWYQQKPGKAPKLLIYSASTLQSGVPSRFSGSGSGTDFTLTISSLQPEDFATYYCQQAHSFPPSFGQGTKLEIK
notes: as for B1
B10: TMPRSS4 Ab38 scFv (VH-VL) (scFv)
scFv: QVQLAQSGAEVKKPGASVKVSCKASGYTFTRHYIQWVRQAPGQGLEWMGWINPNSGNTGYAQKFQGRVTMTRDTSTSTVYMELSSLRSEDTAVYYCARGRQWLRGEYFQHWGQGTLVTVSSGGGGSGGGGSGGGGSDIQMTQSPSSLSASVGDRVTITCQASQDISRYLNWYQQKPGKAPKLLIYGASNLLSGVPSRFSGSGSGTDFTLTISSLQPEDFATYYCQQTHTTPYTFGQGTRLEIK
notes: as for B1
B11: TMPRSS4 Ab39 scFv (VH-VL) (scFv)
scFv: QVQLVQSGAEVKKPGASVKVSCKASGGSFSGYAVSWVRQAPGQGLEWLGVINPSDSWTAFAQKFQGRVTMTRDTSTSTVYMELSSLRSEDTAVYYCAREREDDAFDIWGQGTTVTVSSGGGGSGGGGSGGGGSDIQMTQSPSSLSASVGDRVTITCRASQGIRNWLAWYQQKPGKAPKLLIYRASTLQSGVPSRFSGSGSGTDFTLTISSLQPEDFATYYCQQSYTTPFTFGQGTKLEIK
notes: as for B1
B12: TMPRSS4 Ab4 scFv (VH-VL) (scFv)
scFv: QVQLVQSGAEVKKPGASVKVSCKASGYFFTTYYLHWVRQAPGQGLEWMGVINPNSRLTSYAESFQGRVTMTRDTSTSTVYMELSSLRSEDTAVYYCEREMFPSSYGIDVWGQGTTVTVSSGGGGSGSGGGGSGGGGSDIVMTQSPLSLPVTPGEPASISCRSSQSLLHSNGYNYLDWYLQKPGQSPQLLIYAASTLQSGVPDRFSGSGSGTDFTLKISRVEAEDVGVYYCMQGTHWPPTFGQGTKLEIK
notes: as for B1
B13: TMPRSS4 Ab40 scFv (VH-VL) (scFv)
scFv: QVQLVQSGAEVKKPGASVKVSCKASGGTFSSYAISWVRQAPGQGLEWMGIINPRGGSTNYAQKFQGRVTMTRDTSTSTVYMELSSLRSEDTAVYYCAREGSSWYYDAFDIWGQGTMVTVSSGGGGSGGGGSGGGGSDIQMTQSPSSLSASVGDRVTITCRASQSISSYLNWYQQKPGKAPKLLIYAAYNLQSGVPSRFSGSGSGTDFTLTISSLQPEDFATYYCQQSYSIPFTFGGGTKVEIK
notes: as for B1
B14: TMPRSS4 Ab41 scFv (VH-VL) (scFv)
scFv: QVQLVQSGAEVKKPGASVKVSCKASGGTFSSYAISWVRQAPGQGLEWMGWMNPNSGDTHYAQKFQGRVTMTRDTSTSTVYMELSSLRSEDTAVYYCAREGSSWYYDAFDIWGQGTLVTVSSGGGGSGGGGSGGGGSDIQMTQSPSSLSASVGDRVTITCRASQSISRWLAWYQQKPGKAPKLLIYAASTLQTGVPSRFSGSGSGTDFTLTISSLQPEDFATYYCLQHSSYPFTFGQGTKVEIK
notes: as for B1
B15: TMPRSS4 Ab42 scFv (VH-VL) (scFv)
scFv: QVQLVQSGAEVKKPGASVKVSCKASGYSFTSHYMHWVRQAPGQGLEWMGWMNPNSGNTGYAQKFQGRVTMTRDTSTSTVYMELSSLRSEDTAVYYCARLGQQLDYWGQGTLVTVSSGGGGSGGGGSGGGGSDIQMTQSPSSLSASVGDRVTITCRASQSIRNYLNWYQQKPGKAPKLLIYEASRLQSGVPSRFSGSGSGTDFTLTISSLQPEDFATYYCQQSYSAPPTFGPGTKVDIK
notes: as for B1
B16: TMPRSS4 Ab43 scFv (VH-VL) (scFv)
scFv: QVQLVQSGAEVKKPGASVKVSCKASGYTFIGYYMHWVRQAPGQGLEWMGRINPNSGETNYAQKFQGRVTMTRDTSTSTVYMELSSLRSEDTAVYYCARVRVRGVIHPGFDPWGQGTLVTVSSGGGGSGGGGSGGGGSDIQMTQSPSSLSASVGDRVTITCQASQDISNYLNWYQQKPGKAPKLLIYAASSLQSGVPSRFSGSGSGTDFTLTISSLQPEDFATYYCQQSYSTPVTFGPGTKVDIK
notes: as for B1
B17: TMPRSS4 Ab44 scFv (VH-VL) (scFv)
scFv: QVQLVQSGAEVKKPGASVKVSCKASGYTFRNYYIHWVRQAPGQGLEWMGRINPNSGGTNYAQKFQGRVTMTRDTSTSTVYMELSSLRSEDTAVYYCARARIAVAVSGFGYWGQGTLVTVSSGGGGSGGGGSGGGGSDIQMTQSPSSLSASVGDRVTITCQASQDISNYLNWYQQKPGKAPKLLIYAASSLHSGVPSRFSGSGSGTDFTLTISSLQPEDFATYYCQESSSFPYTFGPGTKVDIK
notes: as for B1
B18: TMPRSS4 Ab45 scFv (VH-VL) (scFv)
scFv: QVQLVQSGAEVKKPGASVKVSCKASGYTFSRWYMHWVRQAPGQGLEWMGRINPNSGGTNYAQKFQGRVTMTRDTSTSTVYMELSSLRSEDTAVYYCARVGGYGWFDPWGQGTLVTVSSGGGGSGGGGSGGGGSDIQMTQSPSSLSASVGDRVTITCQATQDIRNYLNWYQQKPGKAPKLLIYATSSLQSGVPSRFSGSGSGTDFTLTISSLQPEDFATYYCQQSYSPPYTFGQGTKLEIK
notes: as for B1
B19: TMPRSS4 Ab48 scFv (VH-VL) (scFv)
scFv: QVQLVQSGAEVKKPGASVKVSCKASGYTFTGYYLHWVRQAPGQGLEWMGWISAYNGNTNYAQNLQGRVTMTRDTSTSTVYMELSSLRSEDTAVYYCARHSYSGSYSTLPYYGMDVWGQGTTVTVSSGGGGSGGGGSGGGGSDIQMTQSPSSLSASVGDRVTITCRASQGISNYLAWYQQKPGKAPKLLIYTASTLFPGVPSRFSGSGSGTDFTLTISSLQPEDFATYYCQQSYSIPLTFGGGTKVEIK
notes: as for B1
B20: TMPRSS4 Ab49 scFv (VH-VL) (scFv)
scFv: QVQLVQSGAEVKKPGASVKVSCKASGYTFTGYYMHWVRQAPGQGLEWMGRINPNSGGTNYAQKFQGRVTMTRDTSTSTVYMELSSLRSEDTAVYYCARERAGYSSGQFDYWGQGTLVTVSSGGGGSGGGGSGGGGSDIQMTQSPSSLSASVGDRVTITCRASQSISNWLAWYQQKPGKAPKLLIYAASTLQNGVPSRFSGSGSGTDFTLTISSLQPEDFATYYCQQSYTFPITFGQGTKVEIK
notes: as for B1

molecular target: T1, Human TMPRSS4 (Transmembrane protease, serine 4), wild type full length (human, UniProt Q9NRS4 1-437); test: flow cytometry, monoclonal phage on HEK293T-TMPRSS4 cells;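 note: bound phage detected with a PE-labelled mouse anti-M13 monoclonal antibody, read by flow cytometry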
T1 construct: Type II membrane protein over-expressed on HEK293T cells (also endogenous on H1975 and LUDLU-1 cells); also called TMPRSS4 WT; HEK293T-TMPRSS4
T1 sequence (Q9NRS4 whole entry): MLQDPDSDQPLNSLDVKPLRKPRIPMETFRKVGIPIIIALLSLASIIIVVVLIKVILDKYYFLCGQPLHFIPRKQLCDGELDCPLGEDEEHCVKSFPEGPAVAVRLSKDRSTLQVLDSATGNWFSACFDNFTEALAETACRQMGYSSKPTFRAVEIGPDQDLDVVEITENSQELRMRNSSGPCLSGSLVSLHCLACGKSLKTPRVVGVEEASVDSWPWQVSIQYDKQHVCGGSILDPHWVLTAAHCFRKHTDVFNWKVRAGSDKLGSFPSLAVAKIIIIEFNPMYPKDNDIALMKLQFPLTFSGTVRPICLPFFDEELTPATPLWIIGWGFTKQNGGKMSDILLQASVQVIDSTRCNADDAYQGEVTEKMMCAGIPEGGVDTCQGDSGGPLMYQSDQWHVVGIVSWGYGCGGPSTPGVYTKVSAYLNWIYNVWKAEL

Binder	binding result
B1	binds
B2	binds
B3	binds
B4	binds
B5	binds
B6	binds
B7	binds
B8	binds
B9	binds
B10	binds
B11	binds
B12	binds
B13	binds
B14	binds
B15	binds
B16	binds
B17	binds
B18	binds
B19	binds
B20	binds

Source: patent US20250297255A1 (ARSENAL BIOSCIENCES, published 2025)
